The target of assay [1] is T1, murine Tissue Factor in murine brain extracts (murine, UniProt P20352 29-294).
T1 sequence (looked up): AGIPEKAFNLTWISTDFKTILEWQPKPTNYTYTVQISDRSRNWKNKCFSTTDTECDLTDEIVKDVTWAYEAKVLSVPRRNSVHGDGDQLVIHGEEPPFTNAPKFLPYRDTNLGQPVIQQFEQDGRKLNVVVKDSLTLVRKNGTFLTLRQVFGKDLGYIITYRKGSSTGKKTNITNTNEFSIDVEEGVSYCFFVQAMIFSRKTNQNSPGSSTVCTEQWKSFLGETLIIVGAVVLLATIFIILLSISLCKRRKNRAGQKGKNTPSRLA
In words: cell-based or functional assay.

Assay [2] addresses T2, murine Tissue Factor on B6F10 melanoma cells (murine, UniProt P20352 29-294).
T2 construct: whole, on cells; also called cell-associated mTF
T2 sequence (looked up): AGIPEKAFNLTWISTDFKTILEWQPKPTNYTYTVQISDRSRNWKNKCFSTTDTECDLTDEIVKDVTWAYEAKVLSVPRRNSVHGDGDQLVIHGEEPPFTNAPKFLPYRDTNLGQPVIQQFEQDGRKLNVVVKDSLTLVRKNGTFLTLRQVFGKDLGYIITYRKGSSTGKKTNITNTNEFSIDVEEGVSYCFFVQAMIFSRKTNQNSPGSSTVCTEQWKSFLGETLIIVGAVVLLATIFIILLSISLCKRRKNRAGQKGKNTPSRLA
In words: FACS on B6F10 melanoma cells that express mTF.

B1: PHD127 Fab (Fab, V domains shown)
VH: QVQLVQSGAEVKKPGESLKISCKGSYSFTNSWISWVRQMPGKGLEWMGIIDPDDSYTSYSPSFQGQVTISADKSISTAYLQWSSLKASDTAMYYCARGAGYGRMFGDVWGQGTLVTVSS
VL: DIELTQPPSVSVAPGQTARISCSGDNLGSYYASWYQQKPGQAPVLVIYQDDNRPSGIPERFSGSNSGNTATLTISGTQAEDEADYYCGAYTYSTSWVFGGGTKLTVLG
notes: HuCAL Fab; The assignment of 8 (VH) and 9 (VL) to PHD127 follows the order of listing
On to B1, for which the “EC50 Conc. (ug/ml), inhibition of fibrin clot formation in human plasma with murine brain extracts as source of mTF” value (shortened to “EC50 Conc. (ug/ml), inhibition”) in assay [1] came to 0.82 µg/mL. Besides, in assay [2], the midpoint of the response, the EC50, lay at 4.35 nM.

B2: PHD126 Fab (Fab, V domains shown)
VH: QVQLVQSGAEVKKPGESLKISCKGSYSFSNYWIGWVRQMPGKGLEWMGFIDPDDSDTNYSPSFQGQVTISADKSISTAYLQWSSLKASDTAMYYCARALYMQGGSFDSWGQGTLVTVSS
VL: DIELTQPPSVSVAPGQTARISCSGDNLGSYYVSWYQQKPGQAPVLVIYRDTDRPSGIPERFSGSNSGNTATLTISGTQAEDEADYYCQSYDYGVSNQVFGGGTKLTVLG
Turning to B2, the “EC50 Conc. (ug/ml), inhibition” value in assay [1] stood at 0.23 µg/mL.

B3: PHD104 Fab (Fab, V domains shown)
VH: QVQLVQSGAEVKKPGESLKISCKGSYSFTSNWIGWVRQMPGKGLEWMGWIYPSDSMTRYSPSFQGQVTISADKSISTAYLQWSSLKASDTAMYYCARYLFGLFDNWGQGTLVTVSS
VL: DIELTQPPSVSVAPGQTARISCSGDNLGSYYVSWYQQKPGQAPVLVIYNDNNRPSGIPERFSGSNSGNTATLTISGTQAEDEADYYCATYDSSTDVFGGGTKLTVLG
Consider B3, for which the “EC50 Conc. (ug/ml), inhibition” value in assay [1] worked out at 23.8 µg/mL.

B4: PHD103 Fab (Fab, V domains shown)
VH: QVQLVQSGAEVKKPGESLKISCKGSGYSFSNSWIAWVRQMPGKGLEWMGGIIGPGHSYTKYSPSFQGQVTISADKSISTAYLQWSSLKASDTAMYYCARINMGYFDYWGQGTLVTVSS
VL: DIELTQPPSVSVAPGQTARISCSGDSLGLKKFVSWYQQKPGQAPVLVIYDDSNRPSGIPERFSGSNSGNTATLTISGTQAEDEADYYCGTYDQTIGHDVVFGGGTKLTVLG
With B4, in assay [1], the “EC50 Conc. (ug/ml), inhibition” value is 63.3 µg/mL.

The values are drawn from US20050239140A1 (Janssen / Centocor, published 2005).
